Literature values, collected in article PMC7570734.
Where two headings read alike, the source gives them in different places.

Columns and labels:
[1] = target: alpha-factor (Saccharomyces cerevisiae) (UniProt P01149)
[2] = target: alpha-factor (Saccharomyces cerevisiae) (UniProt P01149); remark: listed apart in the source

Ste2p (from UniProt D6VTK4)
Kd [1]: 17 nM | Kd [2]: > 150 nM
